Source: PMC9959518, “Influence of the Drug Position on Bioactivity in Angiopep-2—Daunomycin Conjugates” (International Journal of Molecular Sciences, 2023)

Experiments:
[1] = test system: U87 human glioblastoma cells; format: cell-based; details: MTT test, 0.05–50 µM, treated 24 h (method: overnight), washed, further 48 h (method: 72 h) at 37 °C, two independent experiments with four parallel measurements
Method: The in vitro cytostatic effect of the synthesized peptide (1) and daunomycin-peptide conjugates (2–8) was investigated on U87 human glioblastoma cells. The cells were treated with the peptide and conjugates at different concentrations (0.05–50 μM) for 24 h, and after a washing step, the cells were incubated for another […] at 37 °C. The cytostatic effect of the compounds was determined using the MTT test.
U87 human glioblastoma cell line was cultured in DMEM supplemented with 10% FBS, 2 mM L-glutamine, penicillin–streptomycin antibiotic mixture (50 IU/mL and 50 μg/mL, respectively), 1 mM sodium pyruvate, and 1% non-essential amino acid mixture. The cell culture was maintained at 37 °C in a humidified atmosphere with 5% CO2. The U87 cell line was a generous gift of Dr. József Tóvári (Department of Experimental Pharmacology, National Institute of Oncology, Budapest, Hungary).
For determining the cytostatic effect of the conjugates, U87 cells were grown to confluency and then divided into 96-well tissue culture plates with an initial cell number of 5.0 × 10^3 cells/well. After 24 h incubation at 37 °C, the cells were treated with the compounds overnight in the concentration range of 0.05–50 μM in 200 μL final volume containing 1.0 v/v% DMSO, whereas control cells were treated only with serum-free medium or with 1.0 v/v% DMSO at the same conditions. After the incubation, cells were washed twice with serum-free medium, then the cells were cultured for an additional 72 h in 10% serum-containing medium at 37 °C. Following that, MTT solution (at c = 0.37 mg/mL final concentration) was added to each well. The respiratory chain [32] and other electron transport systems reduced MTT and thereby formed non-water-soluble violet formazan crystals within the cells. The amount of these crystals can be determined by spectrophotometry and serves as an estimate for the number of mitochondria in addition to the number of living cells in the well [35]. After 3 h of incubation with MTT, the cells were centrifuged for 5 min at 2000 rpm and the supernatant was removed. The obtained formazan crystals were dissolved in DMSO (100 µL), and the optical density (OD) of the samples was measured at λ = 540 nm and 620 nm, respectively, using ELISA Reader (iEMS Reader, Labsystems, Finland). The OD620 values were subtracted from the OD540 values. The percent of cytostasis was calculated with the following equation:(1) Cytostatic effect (%)=1−ODtreated/ODcontrol×100 where the ODtreated and ODcontrol values correspond to the optical densities of the treated and the control wells, respectively. In each case, two independent experiments were carried out with four parallel measurements. Cytostasis was plotted as a function of concentration, and the half-maximal inhibitory concentration was calculated based on a sigmoid curve fitted on the data points using Microcal™ Origin 2018 software. IC50 represents the concentration of a compound that is required for 50% inhibition, expressed in micromolar units.

[2] = Degradation in rat liver lysosomal homogenate followed by HPLC-MS; format: in vitro ADME
Method: The conjugates were treated with lysosomal homogenate for 5 min, 1 h, 6 h, 24 h, and 72 h, and the degradation was followed by HPLC-MS. Control studies investigating conjugates in buffer (without lysosomal homogenate) were also performed, and for these, all conjugates were stable. […] At 6 h, it was the main drug-containing metabolite, and at 72 h, only this Dau-containing fragment could be detected. This time-dependent pattern was also observed in the case of conjugate 2, where Dau was attached to the side chain of Lys in position 15, and the formed smallest metabolite was H-Lys(Dau=Aoa)-OH. […] It is likely that, in this case, a large steric hindrance occurred, and the enzymes were not able to access the peptide bonds around ^10Lys. This observation might explain the discrepancy between the efficient cellular uptake and the lower anticancer activity of this conjugate.
A stock solution with a concentration of 2.5 μg/μL was prepared from the conjugates in distilled water, and this was diluted 100× with 0.2 M sodium acetate buffer (pH 5.03). The rat liver lysosomal homogenate (16.6 μg/μL) was diluted 20× with the same buffer, and then the two solutions were mixed in a 1:1 (protein:peptide, m/m) ratio. In each case, control measurements were also performed, in which buffer was added to the conjugates instead of the lysosomal homogenate. The solutions were stirred at 600 rpm at 37 °C in a thermostat (ThermoMixer, Eppendorf AG, Hamburg, Germany), and after 5 min, 1 h, 6 h, 24 h, and 72 h, 50 μL samples were taken. Each reaction was quenched with 5 μL formic acid and the samples were stored frozen until analysis.
The HPLC-MS analysis of the samples was performed with a Dionex 3000 HPLC-Q Exactive Focus hybrid quadrupole-orbitrap mass spectrometer (Thermo Fisher Scientific, Bremen, Germany). For separation, a Supelco Ascentis C18 column (3 μm, 100 Å, 150 × 2.1 mm; Merck, Darmstadt, Germany) and gradient elution (0 min 2% B, 1 min 2% B, 17 min 90% B; A eluent: 0.1% formic acid/distilled water, eluent B: 0.1% formic acid/acetonitrile + distilled water (80:20, v/v%), flow rate 0.2 mL/min, 40 °C) was used, and high-resolution mass spectra were recorded in the range of 200–1800 m/z. The data were analyzed using the Xcalibur program (Thermo Fisher Scientific).

COc1cccc2c1C(=O)c1c(O)c3c(c(O)c1C2=O)C[C@@](O)(C(C)=NOCC(=O)N[C@H](C(=O)N[C@@H](Cc1ccccc1)C(=O)N[C@@H](Cc1ccccc1)C(=O)N[C@@H](Cc1ccc(O)cc1)C(=O)NCC(=O)NCC(=O)N[C@@H](CO)C(=O)N[C@@H](CCCNC(=N)N)C(=O)NCC(=O)N[C@@H](CCCCN)C(=O)N[C@@H](CCCNC(=N)N)C(=O)N[C@@H](CC(N)=O)C(=O)N[C@@H](CC(N)=O)C(=O)N[C@@H](Cc1ccccc1)C(=O)N[C@@H](CCCCN)C(=O)N[C@H](C(=O)N[C@@H](CCC(=O)O)C(=O)N[C@@H](CCC(=O)O)C(=O)N[C@@H](Cc1ccc(O)cc1)C(=O)O)[C@@H](C)O)[C@@H](C)O)C[C@@H]3O[C@H]1C[C@H](N)[C@H](O)[C@H](C)O1 [compound 3, Dau=Aoa-TFFYGGSRGKRNNFKTEEY-OH]
IC50 [1]: 10.9 ± 2.8 µM
time of appearance of the Dau=Aoa-Thr-OH fragment ([2]; 1:1 protein:peptide m/m, 0.2 M sodium acetate pH 5.03, 37 °C): ≤ 1 h

COc1cccc2c1C(=O)c1c(O)c3c(c(O)c1C2=O)C[C@@](O)(C(C)=NOCC(=O)NCCCC[C@H](NC(=O)CNC(=O)[C@H](CCCNC(=N)N)NC(=O)[C@H](CO)NC(=O)CNC(=O)CNC(=O)[C@H](Cc1ccc(O)cc1)NC(=O)[C@H](Cc1ccccc1)NC(=O)[C@H](Cc1ccccc1)NC(=O)[C@@H](N)[C@@H](C)O)C(=O)N[C@@H](CCCNC(=N)N)C(=O)N[C@@H](CC(N)=O)C(=O)N[C@@H](CC(N)=O)C(=O)N[C@@H](Cc1ccccc1)C(=O)N[C@@H](CCCCN)C(=O)N[C@H](C(=O)N[C@@H](CCC(=O)O)C(=O)N[C@@H](CCC(=O)O)C(=O)N[C@@H](Cc1ccc(O)cc1)C(=O)O)[C@@H](C)O)C[C@@H]3O[C@H]1C[C@H](N)[C@H](O)[C@H](C)O1 [compound 4, H-TFFYGGSRGK(Dau=Aoa)RNNFKTEEY-OH]
IC50 [1]: 24 ± 5.9 µM
smallest metabolite H-Lys(Dau=Aoa)-OH at 1 h ([2]; 1:1 protein:peptide m/m, 0.2 M sodium acetate pH 5.03, 37 °C, 1 h): not detectable
release of the smallest metabolite H-Lys(Dau=Aoa)-OH (in words) ([2]; pH 5.03, 37 °C, up to 72 h): not efficiently released

COc1cccc2c1C(=O)c1c(O)c3c(c(O)c1C2=O)C[C@@](O)(C(C)=NOCC(=O)NCCCC[C@H](NC(=O)CNC(=O)[C@H](CCCNC(=N)N)NC(=O)[C@H](CO)NC(=O)CNC(=O)CNC(=O)[C@H](Cc1ccc(O)cc1)NC(=O)[C@H](Cc1ccccc1)NC(=O)[C@H](Cc1ccccc1)NC(=O)[C@@H](NC(=O)CON=C(C)[C@]1(O)Cc2c(O)c4c(c(O)c2[C@@H](O[C@H]2C[C@H](N)[C@H](O)[C@H](C)O2)C1)C(=O)c1c(OC)cccc1C4=O)[C@@H](C)O)C(=O)N[C@@H](CCCNC(=N)N)C(=O)N[C@@H](CC(N)=O)C(=O)N[C@@H](CC(N)=O)C(=O)N[C@@H](Cc1ccccc1)C(=O)N[C@@H](CCCCNC(=O)CON=C(C)[C@]1(O)Cc2c(O)c4c(c(O)c2[C@@H](O[C@H]2C[C@H](N)[C@H](O)[C@H](C)O2)C1)C(=O)c1c(OC)cccc1C4=O)C(=O)N[C@H](C(=O)N[C@@H](CCC(=O)O)C(=O)N[C@@H](CCC(=O)O)C(=O)N[C@@H](Cc1ccc(O)cc1)C(=O)O)[C@@H](C)O)C[C@@H]3O[C@H]1C[C@H](N)[C@H](O)[C@H](C)O1 [compound 8, Dau=Aoa-TFFYGGSRGK(Dau=Aoa)RNNFK(Dau=Aoa)TEEY-OH]
IC50 [1]: 23.6 ± 6.3 µM

COc1cccc2c1C(=O)c1c(O)c3c(c(O)c1C2=O)C[C@@](O)(C(C)=NOCC(=O)N[C@H](C(=O)N[C@@H](C)C(=O)NCCCC[C@H](NC(=O)CNC(=O)[C@H](CCCNC(=N)N)NC(=O)[C@H](CO)NC(=O)CNC(=O)CNC(=O)[C@H](Cc1ccc(O)cc1)NC(=O)[C@H](Cc1ccccc1)NC(=O)[C@H](Cc1ccccc1)NC(=O)[C@@H](N)[C@@H](C)O)C(=O)N[C@@H](CCCNC(=N)N)C(=O)N[C@@H](CC(N)=O)C(=O)N[C@@H](CC(N)=O)C(=O)N[C@@H](Cc1ccccc1)C(=O)N[C@@H](CCCCN)C(=O)N[C@H](C(=O)N[C@@H](CCC(=O)O)C(=O)N[C@@H](CCC(=O)O)C(=O)N[C@@H](Cc1ccc(O)cc1)C(=O)O)[C@@H](C)O)C(C)C)C[C@@H]3O[C@H]1C[C@H](N)[C@H](O)[C@H](C)O1 [compound 10, H-TFFYGGSRGK(Dau=Aoa-VA)RNNFKTEEY-OH]
IC50 [1]: > 50 µM
amount of H-K(Dau=Aoa-VA)-OH formed ([2]; pH 5.03, 37 °C): very small amounts
amount of expected metabolite Dau=Aoa-Val-OH produced after 72 h ([2]; pH 5.03, 37 °C, 72 h): negligible amounts

COc1cccc2c1C(=O)c1c(O)c3c(c(O)c1C2=O)C[C@@](O)(C(C)=NOCC(=O)N[C@H](C(=O)N[C@@H](C)C(=O)NCC(=O)NCC(=O)NCCCC[C@H](NC(=O)CNC(=O)[C@H](CCCNC(=N)N)NC(=O)[C@H](CO)NC(=O)CNC(=O)CNC(=O)[C@H](Cc1ccc(O)cc1)NC(=O)[C@H](Cc1ccccc1)NC(=O)[C@H](Cc1ccccc1)NC(=O)[C@@H](N)[C@@H](C)O)C(=O)N[C@@H](CCCNC(=N)N)C(=O)N[C@@H](CC(N)=O)C(=O)N[C@@H](CC(N)=O)C(=O)N[C@@H](Cc1ccccc1)C(=O)N[C@@H](CCCCN)C(=O)N[C@H](C(=O)N[C@@H](CCC(=O)O)C(=O)N[C@@H](CCC(=O)O)C(=O)N[C@@H](Cc1ccc(O)cc1)C(=O)O)[C@@H](C)O)C(C)C)C[C@@H]3O[C@H]1C[C@H](N)[C@H](O)[C@H](C)O1 [compound 11, H-TFFYGGSRGK(Dau=Aoa-VAGG)RNNFKTEEY-OH]
IC50 [1]: 20.2 ± 3 µM
time of appearance of the Dau=Aoa-Val-Ala-OH fragment ([2]; pH 5.03, 37 °C): 1 h
amount of Dau=Aoa-Val-OH detected after 6 h ([2]; pH 5.03, 37 °C, 6 h): high amounts
